Source: the DeepSol protein solubility set

Experiment: soluble on expression in E. coli; label from the status in PepcDB or PDB records

Row | Sequence | soluble on expression in E. coli
1 | MGFVDRGGGREAKGASLRRSKNNPGASIAKNKSAKKDYTTPATRATPTPPPACLPVLKALMAAASAGATAMEATAASTVTDFEKALAAVRDAAQTGGSPYIDAAVALLSRKLEEDREGIFRRAAEEGKLAAVVCWCGEAERQSLLLNTCVQHNKLYRGTLEQQQRSSATGGGARHVHFNVDGAVVASVAAAVTTSSSSTKASILLYAVLGIHVNSIDRVNMRLHDQWVKELEANVKHSDVVGVLTGLNLSREHGTHYAQERLFKECWRVAAEVRLPLVLHLGAADAASLTETVNRAAKLLDELLAATSATADGAGAAPSAVVLHNGLRALHASTAMQQLVRAHRPAAGRTAAAVPFYVLATADGLAVAKTEGSETEVTATTDSGPSVEALAALLPPRAGLGSNSDSATTTSSGGDAAVHLSQLLIGTGAPWGTPQNLPDPYLCTLPNEPGNYAYVVQTLYDAMRAPPPPPTAAAAAAELTLADLSAIAAVNYLLAFFHECVWEQEQQQQQQRSGSDDETTADALQQQQRRWVESQQPVVVAGLADSDVKRDLEALLAEAAKERERMEQERLREEAGLAQARSEELQQKRSRRERKKNVKANNRSNFTHFRNKDFAPRQSKQEKPAHLREVVGIREGGSTDVDGRERTPSSSSAASDSGSAGGPNSLAAQVERLLKANAAHRDPECRAQRQPAGRGKGRGQNALAGSRKVGRSADMKSSEQPQQQYGAGAGGKAENGSPSDGSDDDDERYTRTRAL | not soluble
2 | MGSDKIHHHHHHMPFLLSGHLSDQSCKAGTLPYKIRIVLILFLCPHMCLTNDEGSAVPATDLAAHQIHILYTDHHGWLYNWLRHKLGNACDAADIAQDTFMRILTRQQPVHLNEPRAYLSTIAHGLVIDHWRRRELERAWLETLASLPEPEAPAPETRLIFLEALIEIDRLLDSLKPRVRTTFLLAQLDGLTCPQIAERLGVSLSTVERYITKALRSCYMLRFEP | not soluble
3 | MGSDKIHHHHHHMSHGAGEPYFLTEMSDMAVAGCHVMAKPGGAICNIDCTYCFYLEKEALYPERNKNWRMSDETLEQFIRQHIAAQSGDRIDFAWQGGEPTMMGLPFFRRVVALCEKYGDGRKITHALQTNGILVNDEWARFFAEQHFLIGLSIDGPASLHNHYRFNRAGKGTHEQVVAAMARLKAHHVDFNTLTVVGKHNVGHAADVYEFLLAAGSRFIQFIPLVERMSTDNSSVLNLVMPGESAATLAPWTVPSWQYGEFLNQIFDIWVRRDVDRVYVQMFDVALAAWTAQQPVLCVHSETCGHAFALESNGDLYNCDHFVYPEHLLGNIHQHSIKALNNSERAIAFGEAKRETLTADCRRCDYRFVCHGGCPKHRFAVSPSGHPAHNYLCAGYKHFFQHVTPYMNVWRELLAQGYPMASIMRWLAQDARKDTGAVSRNHPCPCGSGKKYKKCCGKA | not soluble
4 | MGSDKIHHHHHHACTDGINETVISAYQLPVLPEPSYKFSRNGESSVNVLECGFLKSPIDRIFSEYMNEARMSTKRDYDEALRIYHEGNFGLKPQKEVSASSKHLKDRDKILKDIDAWFETSARIAGLGANIPSYEHRNREAVKGLTGYVGNGIGDKDICYVDERGIAVAEVYKYAIMGAIYLDKILNIHLSEQILENNEVLVRNDLTQLLPGHNYTELEHHWDLAYGYYDFWKTLAQSDGLPALKDCHLRISRSFVKGRALMTTSQYDEMRLQADTIRQELSRVVAVRAMHLLVGPNTLANLKENPRRAFRLLSQAYGLIYAAQFARNMEGKSFLTNEETGILLHELEKGDGLWDKERLLGREQTEGALYNLAVRIGEKFDVSPEDIKK | not soluble
5 | MAPLGTTVLLWSLLRSSPGVERVCFRARIQPWHGGLLQPLPCSFEMGLPRRRFSSEAESGSPETKKPTFMDEEVQSILTKMTGLNLQKTFKPAIQELKPPTYKLMTQAQLEEATRQAVEAAKVRLKMPPVLEERVPINDVLAEDKILEGTETTKYVFTDISYSIPHRCLEHHHHHHH | not soluble
6 | MKILFVAAEGAPFSKTGGLGDVIGALPKSLVKAGHEVAVILPYYDMVEAKFGNQIEDVLHFEVSVGWRRQYCGIKKTVLNGVTFYFIDNQYYFFRGHVYGDFDDGERFAFFQLAAIEAMERIDFIPDLLHVHDYHTAMIPFLLKEKYRWIQAYEDIETVLTIHNLEFQGQFSEGMLGDLFGVGFERYADGTLRWNNCLNWMKAGILYANRVSTVSPSYAHEIMTSQFGCNLDQILKMESGKVSGIVNGIDADLYNPQTDALLDYHFNQEDLSGKAKNKAKLQERVGLPVRADVPLVGIVSRLTRQKGFDVVVESLHHILQEDVQIVLLGTGDPAFEGAFSWFAQIYPDKLSTNITFDVKLAQEIYAACDLFLMPSRFEPCGLSQMMAMRYGTLPLVHEVGGLRDTVRAFNPIEGSGTGFSFDNLSPYWLNWTFQTALDLYRNHPDIWRNLQKQAMESDFSWDTACKSYLDLYHSLVN | not soluble
7 | MLFATSGSGSMLQSWNLKTSKRTGSFDAKSSINAVAISPDGNTLATGIRDNAIKLWNINDGKLIHTLTGHQGQVRTVAFSPDGTLLASGSSDGTVKLWNATTGKEINTFTAHKEQVWSVAFNPDGKTLASTGQDGSVKIWGVSPQLEHHHHHH | soluble
8 | MGSDKIHHHHHHMDYDYIIVGAGAAGLSLAYHLGQSALADQTILIIDPNHTRQNDRTWCFWEVGDGPFEAVVSRRWEHLWLYDKHWSARMAIAPYRYKLIQGIDFYQFVDHWLAQRPNITRLQGSVDRLVELPEGVAAVVGGRQYTARYAFNSVYRPVPTPPGYHTWLQHFKGWVIKTPQPVFDAEAATFMDFRIPQAGDVRFGYVLPFDTCTALVEYTIFSPQLVSQTEYEIGLQRYIAEQLGIDRYEITHVEYGVIPMSDVPLPLRPSPHVLNIGTAGGMSKPSTGYTFQRIQRQTRQIVASLTKEGHPFYRQPLFNRHALMDSILLNVLDAGRTPGHRFFANLFRHNPIQRVLRFLDEETTIAEDIALMSTVEMMPFAIAALAVFWGRMSSLGRREWEMG | not soluble
9 | MGSDKIHHHHHHMNKINRVAIVGGTHGNEFTGAFLVKKFQQFPEVIQKPSFETLTILGNPKAFEAGKRYIEKDLNRCFLTESLQNTNLSSYEDIRAKQIAGVLGAENKPNVDVVIDLHSTTANMGLSIILGNQDPFLLKLCAYLSDINPLVKVCYTIPEKGSNFLRSLNKLGFVIEVGAVAQGVLNAELFQKTEQLIYTILDYLEQYNRGNIPKINNLLALYKFTGTVDYPRNENGDIQGMIHPDIQFRDYEPLNPGDPLFLTLDGKAIAYEGTSTVYPIFINEAAYYEKGIAMLFTEKQLINPSS | not soluble
10 | DGTVVNYVGFQRDITERKEHERRLKALSESVQDLLQADTREEVAEIGVETARTVLGLEANTIHLYNEAERTLEPVAASDGIYDLLEDLPTFTPGDSIAWRVYESGDALAVDDVHADPDIYNPDTPIKSELYLPLGRHGILLAGSGTNAAFDQR | not soluble
11 | MDSQVEGKISPSQKESSSTSGLVSPSEDGPAHQKIHRDQLSVDQIKKIREERAQKRQVRRNSLISQGKDPDFPTPDLQFIERPFLPINHDNSKGLTPATIQVTQDSLDVKIMTYNTLAQTLIRRDFFPESGPALKWHKRSKVLVHELKKYRPDVVSLQEVDYNELNFWQENFHKLGFDVIFKRHEGKTHGLLVAWNNKKFQLDNDWMLDYDNILAGNVISARTRTKNIALIISLYFKGITDSSSRGIIVANTHLFWHPFGVFERLRQSYLVLQKIQEIKACSKYNGWHSLLMGDFNTEPEEPPYLAITKRPLILKGPIRAMVECSLAYRYSKKRNGEESDQDDEECDEKSRGEGHSDQPQNPKPESFTATKEEKALVNQLVALHNSLHVKGVSLYGIGYGKVHPENANGSHGEPGLSNWANTWCGLLDYIFYIEGDHNQDTRQKEPLNAFEGNNNVKIIGYLRMPCAQEMPKHSQPFEGEYASDHISLMCQIRLFFGGEKVHSLK | not soluble
12 | MVSTDWKSDLRQRGYRLTPQRQLVLEAVDTLEHATPDDILGEVRKTASGINISTVYRTLELLEELGLVSHAHLGHGAPTYHLADRHHHIHLVCRDCTNVIEADLSVAADFTAKLREQFGFDTDMKHFAIFGRCESCSLKGSTTDS | soluble
13 | GEEGNSSELPLSAEDAKKLTELAENVLQGWDVQAEKIDVIQGNQMALVWKVHTDSGAVCLKRIHRPEKKALFSIFAQDYLAKKGMNVPGILPNKKGSLYSKHGSFLFVVYDWIEGRPFELTVKQDLEFIMKGLADFHTASVGYQPPNGVPIFTKLGRWPNHYTKRCKQMETWKLMAEAEKEDPFSQLYLQEIDGFIEDGLRIKDRLLQSTYVPWTEQLKKSPNLCHQDYGTGNTLLGENEQIWVIDLDTVSFDLPIRDLRKMIIPLLDTTGVWDDETFNVMLNAYESRAPLTEEQKQVMFIDMLFPYELYDVIREKYVRKSALPKEELESAFEYERIKANALRQLI | soluble
